Results taken from article PMC4937676 (Asia Oceania Journal of Nuclear Medicine and Biology, 2016).
Where two headings read alike, the source gives them in different places. Blank lines part the entries; values can stand above or below the molecule they belong to.

Assays:
[1] = Biodistribution in Syrian rats after intravenous injection; conditions: male Syrian rats; for Percentage of injected dose per gram (%ID/g), Blood / Percentage of injected dose per gram (%ID/g), Bone / Percentage of injected dose per gram (%ID/g), Intestine / Percentage of injected dose per gram (%ID/g), Kidneys / Percentage of injected dose per gram (%ID/g), Liver / Percentage of injected dose per gram (%ID/g), Spleen / Percentage of injected dose per gram (%ID/g), Stomach: 5.55 MBq i.v. tail vein, mean ± SD, n = 4
Procedure: (§1) The total amount of radioactivity injected in each animal was measured by counting the 1 mL syringe before and after the injection in a dose calibrator with fixed geometry. The biodistribution of the solution among tissues was determined by sacrificing four rats at each selected time interval (15, 30, 60 and 120 min) after injection, based on animal care protocols.
(§2) Blood samples were rapidly taken after animal sacrifice. The tissues (heart, kidneys, spleen, stomach, intestine, lung, liver, skin, bone, muscle, thyroid, adrenal glands, salivary gland and pancreas) were weighed and rinsed with normal saline and their activities were determined, using a p-type coaxial HPGe detector, coupled with a multi-channel analyzer, based on Equation 1 ([20]):
(§3) The percentage of the injected dose per gram (%ID/g) for different organs was calculated by dividing the amount of activity in each tissue (A) to the decay-corrected injected activity and the mass of each organ. Four rats were sacrificed at each time interval. All values were expressed as mean ± standard deviation and the data were compared, using student’s t-test.

[2] = cited from earlier work
Procedure: In this regard, in a study by Ugur et al., the absorbed dose of kidneys was calculated to be 1090 mGy/MBq, based on biodistribution studies on AR42J rat pancreatic tumors ([2]), whereas an absorbed dose of 0.082 mGy/MBq was reported in kidneys of patients with disseminated neuroendocrine tumors ([37]). However, the absorbed dose of the pancreas as a somatostatin receptor-positive organ was not evaluated in previous research. || As mentioned earlier, the dose delivered to the pancreas has not been evaluated in previous literature. […] On the other hand, the absorbed dose of adrenal glands was somewhat lower than the value reported in the mentioned study, while being in great accordance with the absorbed dose of liver after ^68Ga-DOTATATE injection (0.015 mGy/MBq) in a study by Walker et al. ([41]). || In the present study, the effective absorbed dose was calculated at 0.026 mSv/MBq, which was higher than the value reported by Sandstrom and colleagues (0.021 mSv/MBq). The lower effective absorbed dose in the mentioned study corresponded to lower organ consideration for dosimetric calculations, compared to the present study. Finally, the dose received by critical organs was well within the acceptable range for diagnostic nuclear medicine procedures ([31], [42]).

in vivo = conditions: male, Syrian, rat, iv, 5.55 MBq, total radioactivity, Percentage of injected dose per gram (%ID/g)
Procedure: as §1, §2, §3

[3] = set-up: species or system human
Procedure: The accumulated source activity for each animal organ was calculated according to Equation 4, where A (t) is the activity of each organ at time t: For this purpose, data points representing the non-decay corrected percentage of the injected dose were created. A linear approximation was applied between the two experimental points of time. The curves were extrapolated to infinity by fitting the tail of each curve to a mono-exponential curve with an exponential coefficient equal to the physical decay constant of ^68Ga. The accumulated activity in animals was calculated by computing the area under the curves, extrapolated to the accumulated activity in human organs, using a method proposed by Sparks et al. (Equation 5) and the standard mean weight of each human organ ([21], [22], [23]): The absorbed dose in human organs was calculated by the Radiation Absorbed Dose Assessment Resource (RADAR) formalism, based on the biodistribution data in rats ([22]): In the equation above, ni is the number of radiations with energy E emitted per nuclear transition, Ei is the energy per radiation (MeV), Qi is the fraction of emitted energy absorbed by the target, m is the mass of the target region (kg) and k is the proportionality constant [drawing 8] DF represents the physical decay characteristics of the radionuclide, the range of emitted radiations and the organ size and configuration, expressed in mGy/MBq.s ([24]). In this study, DF values were obtained from OLINDA/EXM software ([22]). The effective absorbed dose in each organ was calculated, using the following formula: […] where HT is the equivalent absorbed dose in each organ and WT is the tissue-weighing factor, which represents a subjective balance between different stochastic health risks ([25]). WT was obtained from the International Commission on Radiological Protection (ICRP) publication 103 ([26]).

[4] = 5.55 MBq i.v., maximum over 15-120 min, time not stated

Percentage of injected dose per gram (%ID/g), Blood ([1]; 15 min after injection): 3.18±0.17 %ID/g
Percentage of injected dose per gram (%ID/g), Bone ([1]; 15 min after injection): 0.56±0.06 %ID/g
Percentage of injected dose per gram (%ID/g), Intestine ([1]; 15 min after injection): 0.71±0.06 %ID/g
Percentage of injected dose per gram (%ID/g), Kidneys ([1]; 15 min after injection): 0.70±0.09 %ID/g
Percentage of injected dose per gram (%ID/g), Liver ([1]; 15 min after injection): 0.91±0.02 %ID/g
Percentage of injected dose per gram (%ID/g), Spleen ([1]; 15 min after injection): 0.51±0.09 %ID/g
Percentage of injected dose per gram (%ID/g), Stomach ([1]; 15 min after injection): 0.41±0.11 %ID/g
Percentage of injected dose per gram (%ID/g), Blood ([1]; 30 min after injection): 2.98±0.12 %ID/g
Percentage of injected dose per gram (%ID/g), Bone ([1]; 30 min after injection): 0.91±0.10 %ID/g
Percentage of injected dose per gram (%ID/g), Intestine ([1]; 30 min after injection): 0.82±0.08 %ID/g
Percentage of injected dose per gram (%ID/g), Kidneys ([1]; 30 min after injection): 0.41±0.10 %ID/g
Percentage of injected dose per gram (%ID/g), Liver ([1]; 30 min after injection): 1.50±0.12 %ID/g
Percentage of injected dose per gram (%ID/g), Spleen ([1]; 30 min after injection): 0.70±0.06 %ID/g
Percentage of injected dose per gram (%ID/g), Stomach ([1]; 30 min after injection): 0.56±0.07 %ID/g
Percentage of injected dose per gram (%ID/g), Blood ([1]; 60 min after injection): 2.53±0.11 %ID/g
Percentage of injected dose per gram (%ID/g), Bone ([1]; 60 min after injection): 1.20±0.11 %ID/g
Percentage of injected dose per gram (%ID/g), Intestine ([1]; 60 min after injection): 0.89±0.05 %ID/g
Percentage of injected dose per gram (%ID/g), Kidneys ([1]; 60 min after injection): 1.42±0.12 %ID/g
Percentage of injected dose per gram (%ID/g), Liver ([1]; 60 min after injection): 0.78±0.08 %ID/g
Percentage of injected dose per gram (%ID/g), Spleen ([1]; 60 min after injection): 1.03±0.10 %ID/g
Percentage of injected dose per gram (%ID/g), Stomach ([1]; 60 min after injection): 1.21±0.09 %ID/g
Percentage of injected dose per gram (%ID/g), Blood ([1]; 120 min after injection): 2.44±0.14 %ID/g
Percentage of injected dose per gram (%ID/g), Bone ([1]; 120 min after injection): 1.05±0.09 %ID/g
Percentage of injected dose per gram (%ID/g), Intestine ([1]; 120 min after injection): 0.61±0.07 %ID/g
Percentage of injected dose per gram (%ID/g), Kidneys ([1]; 120 min after injection): 0.91±0.08 %ID/g
Percentage of injected dose per gram (%ID/g), Liver ([1]; 120 min after injection): 0.60±0.05 %ID/g
Percentage of injected dose per gram (%ID/g), Spleen ([1]; 120 min after injection): 1.43±0.12 %ID/g
Percentage of injected dose per gram (%ID/g), Stomach ([1]; 120 min after injection): 1.54±0.14 %ID/g
Activity content in the bone, maximum value [1, 4]: 1.20 %ID/g
Activity content in the stomach, maximum value [1, 4]: 1.54 %ID/g
SMILES: [Cl][68Ga]([Cl])[Cl] [^68GaCl3]

SMILES: C[C@@H](O)[C@@H]1NC(=O)[C@H](CCCCN)NC(=O)[C@@H](Cc2c[nH]c3ccccc23)NC(=O)[C@H](Cc2ccc(O)cc2)NC(=O)[C@@H](NC(=O)[C@@H](Cc2ccccc2)NC(=O)CN2CCN(CC(=O)O)CCN(CC(=O)O)CCN(CC(=O)O)CC2)CSSC[C@@H](C(=O)N[C@H](CO)[C@@H](C)O)NC1=O [^68Ga-DOTATOC, Gallium-68 DOTA-DPhe^1-Tyr^3-Octreotide, metal not drawn]
Absorbed dose of kidneys [2]: 0.082 mGy/MBq
Effective absorbed dose [2]: 0.021 mSv/MBq
tissue uptake at 0.25 h (in vivo; Adrenal): 0.91 ± 0.05 %ID/g
tissue uptake at 0.5 h (in vivo; Adrenal): 0.75 ± 0.06 %ID/g
tissue uptake at 1 h (in vivo; Adrenal): 0.6 ± 0.04 %ID/g
tissue uptake at 2 h (in vivo; Adrenal): 0.44 ± 0.01 %ID/g
tissue uptake at 0.25 h (in vivo; Blood): 4.51 ± 0.21 %ID/g
tissue uptake at 0.5 h (in vivo; Blood): 1.98 ± 0.15 %ID/g
tissue uptake at 1 h (in vivo; Blood): 1.53 ± 0.11 %ID/g
tissue uptake at 0.25 h (in vivo; Bone): 0.95 ± 0.08 %ID/g
tissue uptake at 0.5 h (in vivo; Bone): 0.58 ± 0.03 %ID/g
tissue uptake at 2 h (in vivo; Bone): 0.05 %ID/g
tissue uptake at 0.25 h (in vivo; Heart): 1.68 ± 0.08 %ID/g
tissue uptake at 0.5 h (in vivo; Heart): 1.01 ± 0.07 %ID/g
tissue uptake at 1 h (in vivo; Heart): 0.73 ± 0.07 %ID/g
tissue uptake at 2 h (in vivo; Heart): 0.03 %ID/g
tissue uptake at 0.25 h (in vivo; Intestine): 0.48 ± 0.06 %ID/g
tissue uptake at 0.5 h (in vivo; Intestine): 0.56 ± 0.05 %ID/g
tissue uptake at 1 h (in vivo; Intestine): 0.39 ± 0.04 %ID/g
tissue uptake at 2 h (in vivo; Intestine): 0.38 ± 0.04 %ID/g
tissue uptake at 0.25 h (in vivo; Kidneys): 11.9 ± 0.21 %ID/g
tissue uptake at 0.5 h (in vivo; Kidneys): 8.99 ± 0.13 %ID/g
tissue uptake at 1 h (in vivo; Kidneys): 8 ± 0.18 %ID/g
tissue uptake at 2 h (in vivo; Kidneys): 2.51 ± 0.1 %ID/g
tissue uptake at 0.25 h (in vivo; Liver): 0.79 ± 0.09 %ID/g
tissue uptake at 0.5 h (in vivo; Liver): 0.58 ± 0.08 %ID/g
tissue uptake at 1 h (in vivo; Liver): 0.46 ± 0.03 %ID/g
tissue uptake at 2 h (in vivo; Liver): 0.2 %ID/g
tissue uptake at 0.25 h (in vivo; Lung): 0.35 ± 0.06 %ID/g
tissue uptake at 1 h (in vivo; Lung): 0.13 ± 0.01 %ID/g
tissue uptake at 2 h (in vivo; Lung): 0.02 %ID/g
tissue uptake at 0.25 h (in vivo; Muscle): 0.4 ± 0.05 %ID/g
tissue uptake at 2 h (in vivo; Muscle): 0.02 %ID/g
tissue uptake at 0.25 h (in vivo; Pancreas): 12.8 ± 0.28 %ID/g
tissue uptake at 0.5 h (in vivo; Pancreas): 9.55 ± 0.18 %ID/g
tissue uptake at 1 h (in vivo; Pancreas): 6.62 ± 0.22 %ID/g
tissue uptake at 2 h (in vivo; Pancreas): 5.31 ± 0.15 %ID/g
tissue uptake at 0.25 h (in vivo; Salivary gland): 1.22 ± 0.1 %ID/g
tissue uptake at 0.5 h (in vivo; Salivary gland): 0.77 ± 0.04 %ID/g
tissue uptake at 1 h (in vivo; Salivary gland): 0.54 ± 0.03 %ID/g
tissue uptake at 1 h (in vivo; Skin): 0.08 %ID/g
tissue uptake at 2 h (in vivo; Skin): 0.03 %ID/g
tissue uptake at 0.25 h (in vivo; Spleen): 0.38 ± 0.04 %ID/g
tissue uptake at 0.5 h (in vivo; Spleen): 0.93 ± 0.07 %ID/g
tissue uptake at 1 h (in vivo; Spleen): 0.16 ± 0.02 %ID/g
tissue uptake at 2 h (in vivo; Stomach): 0.17 ± 0.02 %ID/g
tissue uptake at 1 h (in vivo; Thyroid): 0.16 ± 0.04 %ID/g
Effective absorbed dose [3]: 0.026 mSv/MBq
Equivalent absorbed dose in humans, Adrenals [3]: 0.010 mGy/MBq
Equivalent absorbed dose in humans, Bone Surf [3]: 0.008 mGy/MBq
Equivalent absorbed dose in humans, Heart [3]: 0.004 mGy/MBq
Equivalent absorbed dose in humans, Kidneys [3]: 0.074 mGy/MBq
Equivalent absorbed dose in humans, Liver [3]: 0.010 mGy/MBq
Equivalent absorbed dose in humans, Lungs [3]: 0.001 mGy/MBq
Equivalent absorbed dose in humans, Red Marrow [3]: 0.003 mGy/MBq
Equivalent absorbed dose in humans, Small Intestine [3]: 0.008 mGy/MBq
Equivalent absorbed dose in humans, Spleen [3]: 0.009 mGy/MBq
Equivalent absorbed dose in humans, Stomach [3]: 0.003 mGy/MBq
Equivalent absorbed dose in humans, Total Body [3]: 0.008 mGy/MBq
